Experimental data as given in paper PMC3232246.

Biological target: EGFP-tagged Rac1-Y64F (human), P63000
Test: co-IP; MEF co-transfected with an EGFP-Rac1 construct and Flag-βPIX, Myc-Tiam1 or Myc-RhoGDI; modified RIPA buffer; 800 µg lysate, anti-GFP antibody and protein A sepharose, 4 °C; blots with anti-Flag or anti-Myc, normalised to the precipitated EGFP-Rac1
Conditions: remark: other sources report otherwise

percent drop in binding against wild type: > 50%
B1: Myc-tagged RhoGDI, P52565 1-204 (natural protein)
chain: MAEQEPTAEQLAQIAAENEEDEHSVNYKPPAQKSIQEIQELDKDDESLRKYKEALLGRVAVSADPNVPNVVVTGLTLVCSSAPGPLELDLTGDLESFKKQSFVLKEGVEYRIKISFRVNREIVSGMKYIQHTYRKGVKIDKTDYMVGSYGPRAEEYEFLTPVEEAPKGMLARGSYSIKSRFTDDDKTDHLSWEWNLTIKKDWKD
